Holding throughout (experiment): cell-based or functional assay
In assay [1] the target is T1, pUL130pUL131 (HEK293T cells transfected with the HCMV genes) (HCMV, UniProt P16772 1-214; F5HET4 19-129).
T1 sequence (looked up) 1: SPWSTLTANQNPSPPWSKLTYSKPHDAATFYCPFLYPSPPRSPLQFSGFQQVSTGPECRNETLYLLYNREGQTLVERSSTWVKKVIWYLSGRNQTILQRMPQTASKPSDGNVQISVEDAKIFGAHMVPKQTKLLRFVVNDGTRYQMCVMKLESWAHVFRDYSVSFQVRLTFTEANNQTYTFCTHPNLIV
T1 sequence (looked up) 2: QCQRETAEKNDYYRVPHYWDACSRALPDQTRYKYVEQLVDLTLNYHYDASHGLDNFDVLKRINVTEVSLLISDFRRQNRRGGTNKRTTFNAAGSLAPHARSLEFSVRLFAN

For assay [2], the target named is T2, pUL128 (HEK293T cells transfected with the HCMV gene) (HCMV, UniProt P16837 1-171, limits assumed).
T2 sequence (looked up): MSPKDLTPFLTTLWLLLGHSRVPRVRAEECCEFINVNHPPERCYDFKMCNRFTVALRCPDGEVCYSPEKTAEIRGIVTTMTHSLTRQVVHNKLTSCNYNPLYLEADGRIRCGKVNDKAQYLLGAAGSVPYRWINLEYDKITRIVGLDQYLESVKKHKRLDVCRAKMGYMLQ

Assay [3] addresses T3, pUL128pUL130pUL131 (HEK293T cells transfected with the HCMV genes) (HCMV, UniProt P16837 1-171; P16772 1-214; F5HET4 19-129).
T3 sequence (looked up) 1: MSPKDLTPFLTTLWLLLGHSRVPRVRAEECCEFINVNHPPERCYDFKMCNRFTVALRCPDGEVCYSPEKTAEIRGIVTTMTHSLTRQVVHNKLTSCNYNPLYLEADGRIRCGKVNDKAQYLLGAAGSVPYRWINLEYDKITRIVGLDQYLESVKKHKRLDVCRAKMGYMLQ
T3 sequence (looked up) 2: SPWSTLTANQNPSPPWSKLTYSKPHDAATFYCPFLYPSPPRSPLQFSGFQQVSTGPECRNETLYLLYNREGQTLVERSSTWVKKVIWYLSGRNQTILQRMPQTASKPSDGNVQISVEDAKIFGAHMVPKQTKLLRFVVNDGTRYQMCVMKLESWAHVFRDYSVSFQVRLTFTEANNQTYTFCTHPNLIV
T3 sequence (looked up) 3: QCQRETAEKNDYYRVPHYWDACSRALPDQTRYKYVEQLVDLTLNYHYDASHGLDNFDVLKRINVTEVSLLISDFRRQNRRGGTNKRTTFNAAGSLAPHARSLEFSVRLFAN

In assay [4] the target is T4, gHgLpUL128pUL130 (HEK293T cells transfected with the HCMV genes) (HCMV, UniProt P12824 24-743; P16832 31-278; P16837 1-171; P16772 1-214).
T4 sequence (looked up) 1: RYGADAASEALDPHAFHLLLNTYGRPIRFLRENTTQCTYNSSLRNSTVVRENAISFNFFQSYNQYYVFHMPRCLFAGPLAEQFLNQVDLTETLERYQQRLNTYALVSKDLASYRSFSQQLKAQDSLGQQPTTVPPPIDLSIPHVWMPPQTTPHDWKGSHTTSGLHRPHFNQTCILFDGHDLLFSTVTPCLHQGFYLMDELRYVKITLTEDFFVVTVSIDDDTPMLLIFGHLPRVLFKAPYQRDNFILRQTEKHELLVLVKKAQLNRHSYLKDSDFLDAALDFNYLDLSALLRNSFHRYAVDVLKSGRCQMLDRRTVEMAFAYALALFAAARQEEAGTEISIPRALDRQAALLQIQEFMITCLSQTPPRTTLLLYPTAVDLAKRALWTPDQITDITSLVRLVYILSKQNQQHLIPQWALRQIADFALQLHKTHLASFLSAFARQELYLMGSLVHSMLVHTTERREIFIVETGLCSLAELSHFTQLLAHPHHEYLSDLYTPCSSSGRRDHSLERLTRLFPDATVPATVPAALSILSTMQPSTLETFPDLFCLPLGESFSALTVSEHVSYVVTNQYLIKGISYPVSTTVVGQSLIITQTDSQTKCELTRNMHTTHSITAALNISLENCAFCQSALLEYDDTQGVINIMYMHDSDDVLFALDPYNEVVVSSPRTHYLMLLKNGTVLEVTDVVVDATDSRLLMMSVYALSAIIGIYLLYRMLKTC
T4 sequence (looked up) 2: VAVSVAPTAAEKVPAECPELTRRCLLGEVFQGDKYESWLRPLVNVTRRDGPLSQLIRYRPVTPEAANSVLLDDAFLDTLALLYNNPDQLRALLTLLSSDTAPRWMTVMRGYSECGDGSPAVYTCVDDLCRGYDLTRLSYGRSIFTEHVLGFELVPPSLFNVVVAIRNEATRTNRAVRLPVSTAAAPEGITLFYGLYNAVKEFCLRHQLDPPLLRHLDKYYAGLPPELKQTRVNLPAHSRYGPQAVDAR
T4 sequence (looked up) 3: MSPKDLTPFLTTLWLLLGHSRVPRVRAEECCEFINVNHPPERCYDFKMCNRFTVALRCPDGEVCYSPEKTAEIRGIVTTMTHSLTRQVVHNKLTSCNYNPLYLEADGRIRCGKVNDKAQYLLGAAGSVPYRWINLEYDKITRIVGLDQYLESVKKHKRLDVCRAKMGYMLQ
T4 sequence (looked up) 4: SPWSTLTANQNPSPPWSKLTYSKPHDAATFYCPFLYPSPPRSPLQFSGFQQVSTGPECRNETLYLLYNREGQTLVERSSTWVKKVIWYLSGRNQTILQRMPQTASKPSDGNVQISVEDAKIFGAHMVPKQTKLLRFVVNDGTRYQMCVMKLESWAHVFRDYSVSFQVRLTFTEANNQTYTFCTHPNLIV

B1: human monoclonal antibody 10P3 (antibody, V domains shown)
VH: EVQLVESGGGLVRPGGSLRLSCAASGFTFHNYRMNWVRQAPGKGLEWVANIKQDGSEKSYVDSVRGRFTTSRDNSKNSLYLQINSLRAEDTAVYYCARGEGYTYGVVYSYSAMDVWGQGTTVIVSS
VL: SYELTQPPSVSVSPGQTARITCSGNVLPNQYASWYQQKPGQAPVLVIYKDTERPSGIPGRFSGSSSGTTVTLTISGVQAEDEADYYCQSADSSGADYVFGTGTKVTVL
For B1, the “Log IC80, neutralization of HCMV infection of epithelial cells” value (from here on “Log IC80, neutralization”) in assay [1] was -10.5 log IC80 (concentration unit not printed).

B2: human monoclonal antibody 8L13 (antibody, V domains shown)
VH: QVQLLESGGGVVQPGRSLRLSCAASGFTFSNYGMHWVRQAPGKGLEWVAVIWNDGSKKYYAESVKGRFTISRDNSKNTVYLQMNSLRAEDTAVYYCARDEGVQMVFAMPDYGMDVWGQGTTVTVSS
VL: SYELTQPPSVSVSPGQTASITCSGDKLGDKFACWYQQRPGQSPILVIYQDSKRPSGIPERFSGSNSGNTATLTIRGTQAMDEADYYCQAWDSSTAHYVFGTGTKVTVL
As to B2, the “Log IC80, neutralization” value in assay [1] is -11.6 log IC80 (concentration unit not printed).

B3: human monoclonal antibody 15D8 (antibody, V domains shown)
VH: EVQLVQSGAEVKKPGESLKISCQASGYSFTNYWIAWVRQMPGKGLEWMGIIYPGDSDIKYSPSFRGQVTISADKSISNAFLQWRSLRASDTAMYYCARHAIRGDGFDYWGQGTLVTVSS
VL: SYELTQPPSVSVSPGQTATITCSGDKLGEKYACWYQQKPGQSPVLVMYQDTKRPSGIPERFSGSNSGNTATLTISGTRAMDEADYYCQAWDTNTVIFGGGTKLTVL
Regarding B3, the “Log IC80, neutralization” value in assay [2] was -11 log IC80 (concentration unit not printed).

B4: human monoclonal antibody 7I13 (antibody, V domains shown)
VH: QVQLVESGGGVVQPGRSLRLSCAASGFTFSNYGMHWVRQGPGKGLEWVAVISYDASSKYYTDSVQGRFTISRDNSKNTLFLQMNSLRGEDTAVYYCAKALRYLDWFLSDPFDYWGQGTLVTVSS
VL: EIVLTQSPGTLSLSPGERATLSCRASQSVSSDFLAWYQQKPGQAPRLLIYGASSRATGIPDRFSGSGSGTDFTLTISRLEPEDFAVYYCQQYAASPPFGQGTRLEIK
With B4, the “Log IC80, neutralization” value in assay [3] is -11 log IC80 (concentration unit not printed).

B5: human monoclonal antibody 8I21 (antibody, V domains shown)
VH: LVELVESGGGVVQPGRSLRLSCAASGFTFSSDGMHWVRQSPGRGLEWVAFISSDGSTPYYADSVKGRFTISRDNSKNTLYLQMNSLRAEDTAMYFCAKDWALFRWLRTFDHWGQGTLVTVSS
VL: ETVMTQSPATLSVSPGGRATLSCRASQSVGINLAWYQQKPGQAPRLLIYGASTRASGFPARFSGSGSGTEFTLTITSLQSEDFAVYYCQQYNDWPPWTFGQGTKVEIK
Turning to B5, the “Log IC80, neutralization” value in assay [4] was -9.5 log IC80 (concentration unit not printed).

B6: human monoclonal antibody 8J16 (antibody, V domains shown)
VH: QVQLQESGPGLVKPSETLSLTCSVSGGFTSSYYWSWIRQAPGKGLEWIGYVYYGESTDYNPSLKSRATISIDTSKNQFSLKLSSVTAADTAVYYCAREVDKRGFDYWGQGALVTVSS
VL: EIVLTQSPGTLSLSPGERATLSCRASQSVSGGYLAWYQQEPGQAPRLVIYGASSRATGIPDRFSASGSGTDFTLTITRLEPEDFAVYYCQQYGRTPLTFGGGTKVEIK
B6: the “Log IC80, neutralization” value in assay [3] is -12.3 log IC80 (concentration unit not printed).

Source of the values: patent US20170119874A1 (INSTITUTE FOR RESEARCH IN BIOMEDICINE, published 2017).
